Earlier results on one molecule are cited in patent US20080095848A1, “Pharmaceutical Composition For Topical Use In Form Of Xerogels Or Films And Methods For Production” (Ludwig-maximilian-University, priority 2004, published 2008).

For this series the following is noted: aqueous formulation, within two weeks.

B1: EGF: growth factor; wound healing factor, protein unstable in aqueous formulation (protein, UniProt P01133 23-1207, looked up)
Pro-epidermal growth factor: PQHWSCPEGTLAGNGNSTCVGPAPFLIFSHGNSIFRIDTEGTNYEQLVVDAGVSVIMDFHYNEKRIYWVDLERQLLQRVFLNGSRQERVCNIEKNVSGMAINWINEEVIWSNQQEGIITVTDMKGNNSHILLSALKYPANVAVDPVERFIFWSSEVAGSLYRADLDGVGVKALLETSEKITAVSLDVLDKRLFWIQYNREGSNSLICSCDYDGGSVHISKHPTQHNLFAMSLFGDRIFYSTWKMKTIWIANKHTGKDMVRINLHSSFVPLGELKVVHPLAQPKAEDDTWEPEQKLCKLRKGNCSSTVCGQDLQSHLCMCAEGYALSRDRKYCEDVNECAFWNHGCTLGCKNTPGSYYCTCPVGFVLLPDGKRCHQLVSCPRNVSECSHDCVLTSEGPLCFCPEGSVLERDGKTCSGCSSPDNGGCSQLCVPLSPVSWECDCFPGYDLQLDEKSCAASGPQPFLLFANSQDIRHMHFDGTDYGTLLSQQMGMVYALDHDPVENKIYFAHTALKWIERANMDGSQRERLIEEGVDVPEGLAVDWIGRRFYWTDRGKSLIGRSDLNGKRSKIITKENISQPRGIAVHPMAKRLFWTDTGINPRIESSSLQGLGRLVIASSDLIWPSGITIDFLTDKLYWCDAKQSVIEMANLDGSKRRRLTQNDVGHPFAVAVFEDYVWFSDWAMPSVMRVNKRTGKDRVRLQGSMLKPSSLVVVHPLAKPGADPCLYQNGGCEHICKKRLGTAWCSCREGFMKASDGKTCLALDGHQLLAGGEVDLKNQVTPLDILSKTRVSEDNITESQHMLVAEIMVSDQDDCAPVGCSMYARCISEGEDATCQCLKGFAGDGKLCSDIDECEMGVPVCPPASSKCINTEGGYVCRCSEGYQGDGIHCLDIDECQLGEHSCGENASCTNTEGGYTCMCAGRLSEPGLICPDSTPPPHLREDDHHYSVRNSDSECPLSHDGYCLHDGVCMYIEALDKYACNCVVGYIGERCQYRDLKWWELRHAGHGQQQKVIVVAVCVVVLVMLLLLSLWGAHYYRTQKLLSKNPKNPYEESSRDVRSRRPADTEDGMSSCPQPWFVVIKEHQDLKNGGQPVAGEDGQAADGSMQPTSWRQEPQLCGMGTEQGCWIPVSSDKGSCPQVMERSFHMPSYGTQTLEGGVEKPHSLLSANPLWQQRALDPPHQMELTQ
modifications: Pro-epidermal growth factor
Consider B1, for which the loss of activity is 40%.
